Measurements published in publication PMC9167820, “An experimental study of the effects of SNPs in the TATA boxes of the GRIN1, ASCL3 and NOS1 genes on interactions with the TATA-binding protein”.

B1: GRIN1 WT (dsDNA)
DNA 1: TGGAGGGGGACAAAGACAGGGTGGTG
DNA 2: CACCACCCTGTCTTTGTCCCCCTCCA
B2: GRIN1 -34G>A (rs1402667001) (dsDNA)
DNA 1: TGGAGGAGGACAAAGACAGGGTGGTG
DNA 2: CACCACCCTGTCTTTGTCCTCCTCCA
B3: ASCL3 WT (dsDNA)
DNA 1: TCGAAAAATAAAATAAAATAAAACAT
DNA 2: ATGTTTTATTTTATTTTATTTTTCGA
B4: NOS1 WT (dsDNA)
DNA 1: TGTTTCCTGATAGAAAAAAAAAATGG
DNA 2: CCATTTTTTTTTTCTATCAGGAAACA
B5: NOS1 -27G>A (rs1195040887) (dsDNA)
DNA 1: TGTTTCCTGATAAAAAAAAAAAATGG
DNA 2: CCATTTTTTTTTTTTATCAGGAAACA

What follows are molecules tested against TATA-binding protein (TBP) (Homo sapiens) (UniProt P20226) (assay: EMSA (kinetic, kd/ka)). Settings: 20 mM HEPES-KOH pH 7.6, 5 mM MgCl2, 70 mM KCl, 1 mM DTT, 100 ug/ml BSA, 0.01% NP-40, 5% 'XYZ' (so in the source), 25 C; TBP 0.4 nM; gel 5% PAGE Tris-glycine pH 8.3 ….
Chain of TATA-binding protein (TBP) (Homo sapiens) (P20226 whole entry): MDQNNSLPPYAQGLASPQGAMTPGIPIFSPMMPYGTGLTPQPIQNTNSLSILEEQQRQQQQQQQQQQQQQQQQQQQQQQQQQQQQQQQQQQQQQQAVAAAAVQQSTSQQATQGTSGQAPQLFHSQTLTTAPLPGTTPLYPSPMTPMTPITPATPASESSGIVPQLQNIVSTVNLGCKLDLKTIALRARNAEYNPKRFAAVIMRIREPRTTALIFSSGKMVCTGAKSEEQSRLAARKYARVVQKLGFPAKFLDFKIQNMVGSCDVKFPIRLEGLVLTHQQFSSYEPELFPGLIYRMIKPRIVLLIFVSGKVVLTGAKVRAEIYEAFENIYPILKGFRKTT
Work on “TCGAAAAATAAAACAAAATAAAACAT (double strand) [ASCL3 -45T>C (rs1049743008)]” yielded a Kd of 17 nM.

These molecules were tested against TATA-binding protein (TBP) (Homo sapiens, UniProt P20226 1-339) (assay: EMSA (kinetic, kd/ka); 20 mM HEPES-KOH pH 7.6, 5 mM MgCl2, 70 mM KCl, 1 mM DTT, 100 ug/ml BSA, 0.01% NP-40, 5% 'XYZ' (so in the source), 25 C; TBP 0.4 nM; gel 5% PAGE Tris-glycine pH 8.3, 10 C). Settings: protein: recombinant; label: 32P; blunt.
Chain of TATA-binding protein (TBP) (P20226 whole entry): as the sequence (P20226 whole entry) above
Work on B1 yielded a Kd of 320 ± 50 nM. With B2 the Kd was 200 ± 50 nM. B3 showed a Kd of 12 ± 5 nM. B4 gave a Kd of 70 ± 20 nM. With B5 the Kd was 59 ± 9 nM.
